{"source": "patent US20230406925A1", "about": "(PHYLAXIS BIOSCIENCE, published 2023)", "key": {"[1]": {"target": "T1, human Siglec-8 (full-length, on cells) (human, UniProt Q9NYZ4 17-499)", "T1 construct": "Used for full-length human Siglec-8 transiently expressed on CHO or 293 cells and for native Siglec-8 on primary human eosinophils", "T1 sequence (Q9NYZ4 17-499)": "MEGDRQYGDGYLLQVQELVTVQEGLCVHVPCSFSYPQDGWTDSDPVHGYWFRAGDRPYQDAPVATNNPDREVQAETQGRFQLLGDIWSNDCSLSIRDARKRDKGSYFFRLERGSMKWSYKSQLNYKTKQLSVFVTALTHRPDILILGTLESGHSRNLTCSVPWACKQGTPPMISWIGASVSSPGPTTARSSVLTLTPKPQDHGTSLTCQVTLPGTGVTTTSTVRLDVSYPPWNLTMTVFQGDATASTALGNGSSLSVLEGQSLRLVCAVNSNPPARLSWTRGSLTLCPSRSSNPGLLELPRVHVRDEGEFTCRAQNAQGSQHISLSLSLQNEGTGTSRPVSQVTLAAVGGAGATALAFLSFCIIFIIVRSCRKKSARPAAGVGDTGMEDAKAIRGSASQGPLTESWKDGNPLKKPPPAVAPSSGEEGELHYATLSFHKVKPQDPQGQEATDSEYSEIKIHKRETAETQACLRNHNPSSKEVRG", "experiment": "flow cytometry, CHO cells transiently transfected with full-length human Siglec-8, A647 anti-human Fc-gamma secondary, Mean RL1-H", "experimental": "Binding of the anti-human Siglec-8 VHHs, B12, D1, E2, and G2, as a bivalent VHH-hIgG1-xELL-Fc (VHH of SEQ ID NO: 49, 55, 61, and 1, respectively linked to an Fc xELL via linker 2, these constructs are also designated cx8982, cx8983, cx8984, and cx10382, respectively) was determined by flow cytometry using CHO cells that had been transiently transfected with full-length human Siglec-8. Binding specificity was assessed using untransfected (UT) CHO cells as a control. For the binding assays, 50,000 Siglec-8 CHOs or UT CHOs were seeded in a 96-well plate and a titration of anti-Siglec8-VHH-xELL was added in FACS Buffer (PBS 1% BSA, 0.1% NaN3 pH 7.4) incubating for 30 minutes at 4° C. After washing, the plates were incubated with an A647-conjugated anti-human Fcγ specific secondary antibody (Jackson ImmunoResearch) diluted 1:2000 in FACS buffer for 30 minutes at 4° C. The plates were washed, and binding was determined by flow cytometry quantitating anti-human A647 mean fluorescent intensity using an Intellicyt iQue Plus."}, "[2]": {"target": "T1, human Siglec-8 (full-length, on cells)", "experiment": "flow cytometry, CHO cells transfected with human Siglec-8, anti-human Fc-gamma secondary, Median RL1-H", "experimental": "In additional studies, the parental llama G2 sequence was humanized and multivalent hzSiglec8-G2v14-Fc antibodies were cloned with a reduced effector function xELL human Fc. Binding of bivalent (cx11422; SEQ ID NO: 5 linked to an Fc xELL via linker 2), tetravalent (cx11580; SEQ ID NO: 9 linked to an Fc xELL via linker 2), and hexavalent (cx11579; SEQ ID NO: 10 linked to an Fc xELL via linker 2) hzSiglec8-G2v14-Fc antibodies were assessed by flow cytometry using CHO cells transfected with human Siglec-8. A titration series of the fusion proteins were incubated with the Siglec8-expressing CHO cells (5×10⁴ cells/well) for 30 minutes at 4° C. in FACS Buffer (PBS 1% BSA, 0.1% NaN3 pH 7.4) in 96 well plates. Following one 150 μL wash with FACS buffer, an APC-conjugated anti-human Fcγ specific secondary antibody (Jackson ImmunoResearch) was added, and cells were incubated for 30 minutes at 4° C. Following one additional wash in FACS buffer, bound antibodies were detected via flow cytometry (iQue Intellicyte).\nThe calculated affinity was similar between the bivalent, tetravalent, and hexavalent hzSiglec8-G2v14-Fc antibodies. The observed Bmax was reduced with increasing valency as anticipated, due the fact that the Fc portion of the antibody was detected in this assay and the ratio of Fc regions to anti-Siglec-8 binding domains is inverse to valency."}, "[3]": {"target": "T1, human Siglec-8 (full-length, on cells)", "experiment": "flow cytometry on human eosinophils (CD16- CCR3+) from whole blood, anti-human AF647 secondary, MFI", "description": "To determine if increasing the valency of Siglec-8 antibodies could enhance agonist activity, the parental llama B12, D1 and E2 VHH sequences were used to generate tetravalent (Tet-B12 (cx8467; SEQ ID NO:50 linked to an Fc), Tet-D1 (cx8469; SEQ ID NO:56 linked to an Fc), and Tet-E2 (cx8463; SEQ ID NO:62 linked to an Fc)) and hexavalent (Hex-B12 (cx8466; SEQ ID NO:51 linked to an Fc), Hex-D1 (cx8523; SEQ ID NO:57 linked to an Fc), and Hex-E2 (cx8522; SEQ ID NO:165 linked to an Fc)), Siglec8-VHH-Fc antibodies linked to a reduced effector function xELL human Fc region via linker 2. The bivalent (Bi-B12 (cx8982), Bi-D1 (cx8983) and Bi-E2 (cx8984)), tetravalent, and hexavalent Siglec8-VHH-Fc antibodies were assessed by flow cytometry for binding to eosinophils (CD16⁻ CCR3⁺). […] Cells were spun down and then resuspended in titrated test articles starting at 200 nM 1:4 and incubated for 30 minutes at 4° C. before being washed twice and resuspended in secondary mixture (2*; anti-CCR3 FITC, anti-human AF647, PI, anti-CD16 BV605) and incubated for 30 minutes at 4° C., washed twice, and bound antibodies were detected via flow cytometry (Novocyte). […]"}}}
{"binder": "anti-Siglec8-E2-xELL, bivalent VHH-hIgG1-xELL-Fc (cx8984) (Fc fusion, also called Bi-E2) QVQLVESGGGLVQPGGSLRLSCATSGIIFTSNVINWYRQAPGKQREFVAFITSITSGQSTMYADAVKGRFTVSRDNDKNIGYLQMTSLQPEDTARYVCNVGAYWGQGTQVTVKPGGGGDKTHTCPPCPAPGGPSVFLFPPKPKDTLMISRTPEVTCVVVDVSHEDPEVKFNWYVDGVEVHNAKTKPREEQYNSTYRVVSVLTVLHQDWLNGKEYKCKVSNKALPAPIEKTISKAKGQPREPQVYTLPPSRDELTKNQVSLTCLVKGFYPSDIAVEWESNGQPENNYKTTPPVLDSDGSFFLYSKLTVDKSRWQQGNVFSCSVMHEALHNHYTQKSLSLSPGK", "values": [{"measurement": "EC50 (read off the curve)", "setting": "[1]", "value": "~0.3", "unit": "nM"}]}
{"binder": "tetravalent hzSiglec8-G2v14-Fc antibody, Fc xELL (cx11580) (Fc fusion) EVQLLESGGGEVQPGGSLRLSCAASGSISIFSMYVVAWYRQAPGKEREWVAFIQRGGTANYAESAKGRFTISRDNAKNTVYLQMSSLRAEDTAVYYCNYINTDNEIGGPWGQGTLVTVKPGGSGGSEVQLLESGGGEVQPGGSLRLSCAASGSISIFSMYVVAWYRQAPGKEREWVAFIQRGGTANYAESAKGRFTISRDNAKNTVYLQMSSLRAEDTAVYYCNYINTDNEIGGPWGQGTLVTVKPGGGGDKTHTCPPCPAPGGPSVFLFPPKPKDTLMISRTPEVTCVVVDVSHEDPEVKFNWYVDGVEVHNAKTKPREEQYNSTYRVVSVLTVLHQDWLNGKEYKCKVSNKALPAPIEKTISKAKGQPREPQVYTLPPSRDELTKNQVSLTCLVKGFYPSDIAVEWESNGQPENNYKTTPPVLDSDGSFFLYSKLTVDKSRWQQGNVFSCSVMHEALHNHYTQKSLSLSPGK", "values": [{"measurement": "EC50 (read off the curve)", "setting": "[2]", "value": "~0.03", "unit": "nM"}]}
{"binder": "anti-Siglec8-D1-xELL, bivalent VHH-hIgG1-xELL-Fc (cx8983) (Fc fusion, also called Bi-D1) QVQLVESGGGLVQPGGSLRLSCAASGSIASIHGMGWYRQAPGKERELVAAIAGEGSTYYADSVKGRFTISRDFAKNTLYLQMNNLKAEDTAMYYCANNDERDDYWGQGTQVTVKPGGGGDKTHTCPPCPAPGGPSVFLFPPKPKDTLMISRTPEVTCVVVDVSHEDPEVKFNWYVDGVEVHNAKTKPREEQYNSTYRVVSVLTVLHQDWLNGKEYKCKVSNKALPAPIEKTISKAKGQPREPQVYTLPPSRDELTKNQVSLTCLVKGFYPSDIAVEWESNGQPENNYKTTPPVLDSDGSFFLYSKLTVDKSRWQQGNVFSCSVMHEALHNHYTQKSLSLSPGK", "values": [{"measurement": "EC50 (read off the curve)", "setting": "[3]", "value": "~0.05", "unit": "nM"}]}
